Consider one substance from publication PMC10229432.

Assay [1] addresses extracellular domain of EGFR (sEGFR) (UniProt P00533). Description: cross-linking; photocrosslinking in PBS, 10-μl reaction: 10 pmol sEGFR (or BSA) with 100 pmol 7D12 mutant (0-200 pmol in Fig. 2d), 5 min at 37 °C, 365-nm light for 10 min; PNGase F; denaturing SDS-PAGE, Coomassie; percent from band intensities.
The target in assay [2] is Epidermal Growth Factor Receptor (EGFR) expressed on the surface of A431 cells (human (endogenous in A431)) (UniProt P00533). Description: on-cell binding assay (cell ELISA, chemiluminescence); as a1, but after the 5 min at 37 °C the plate was irradiated with 365-nm light for 10 min (33 mW per cm2) before washing and fixing; Kd from a sigmoidal nonlinear fit.

In assay [1], 7D12-32pcY-109Bpa (VHH) gave a percent crosslinked to EGFR of 33%. Moreover, the Kd in assay [2] came out at 103 nM.
